These results are taken from publication PMC5137453 (Nucleic Acids Research, 2016).

The target in one data set is T1, CPS-6 H148A/K131D/F132N (Caenorhabditis elegans, UniProt Q95NM6 63-305, H148A;K131D;F132N).
T1 sequence: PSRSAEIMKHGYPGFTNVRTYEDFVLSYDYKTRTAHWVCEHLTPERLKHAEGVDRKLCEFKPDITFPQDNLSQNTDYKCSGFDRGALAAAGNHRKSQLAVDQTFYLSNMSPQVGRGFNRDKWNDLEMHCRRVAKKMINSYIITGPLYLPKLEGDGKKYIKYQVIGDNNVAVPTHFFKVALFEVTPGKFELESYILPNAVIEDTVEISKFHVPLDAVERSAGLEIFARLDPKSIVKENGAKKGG
The data set can be described thus: filter binding.

The next data set addresses T2, CPS-6 H148A/P207E (Caenorhabditis elegans, UniProt Q95NM6 63-305, H148A;P207E).
T2 sequence: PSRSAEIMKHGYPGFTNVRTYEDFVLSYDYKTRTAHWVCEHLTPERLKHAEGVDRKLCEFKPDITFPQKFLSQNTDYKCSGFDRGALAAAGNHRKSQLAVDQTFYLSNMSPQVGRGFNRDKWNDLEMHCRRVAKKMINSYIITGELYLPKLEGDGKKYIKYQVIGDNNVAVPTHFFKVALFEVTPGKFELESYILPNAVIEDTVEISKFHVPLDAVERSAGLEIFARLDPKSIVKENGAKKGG
Briefly: filter binding.

The next data set concerns the target T3, CPS-6 H148A (Caenorhabditis elegans, UniProt Q95NM6 63-305, H148A).
T3 sequence: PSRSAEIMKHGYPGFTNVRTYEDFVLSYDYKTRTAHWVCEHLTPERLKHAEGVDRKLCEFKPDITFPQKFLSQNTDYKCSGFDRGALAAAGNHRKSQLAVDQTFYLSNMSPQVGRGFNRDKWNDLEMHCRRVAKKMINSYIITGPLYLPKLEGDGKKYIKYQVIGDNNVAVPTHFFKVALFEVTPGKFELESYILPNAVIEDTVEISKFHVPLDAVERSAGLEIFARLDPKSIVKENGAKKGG
Briefly: filter binding.

For another data set, the target named is T4, CPS-6 H148A/F122A (Caenorhabditis elegans, UniProt Q95NM6 63-305, H148A;F122A).
T4 sequence: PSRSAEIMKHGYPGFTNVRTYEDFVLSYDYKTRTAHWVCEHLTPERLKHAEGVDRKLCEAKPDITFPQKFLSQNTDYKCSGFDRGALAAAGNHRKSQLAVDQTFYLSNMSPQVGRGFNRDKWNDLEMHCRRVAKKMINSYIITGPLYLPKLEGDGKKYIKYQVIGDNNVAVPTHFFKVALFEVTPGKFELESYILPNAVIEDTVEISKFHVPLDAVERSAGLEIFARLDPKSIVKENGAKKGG
The data set can be described thus: X-ray crystallography.

The data set “SEC” deals with the molecule itself. The data set can be described thus: SEC. In general terms: SEC sorts molecules by how far they enter the pores of the column.

In general, Kd refers to a measure of binding affinity in units of concentration. Low values mean a tighter complex, high ones a looser complex. The term stoichiometry N denotes a count of units in the complex or per binding partner.

For the molecule ACGCTGCCGAATTCTGGCGTTAGGAGATACCGATAAGCTTCGGCTTAA (ssDNA) [48-nt ssDNA], the Kd with CPS-6 H148A/K131D/F132N was determined as 659 nM; in the data set with CPS-6 H148A/P207E, 804 nM; in the data set with CPS-6 H148A, 159 nM.
TTTTTTGT (ssDNA) [8-nt ssDNA (5'-TTTTTTGT-3')]: the binding result with CPS-6 H148A/F122A was “binds”.

B1: CPS-6 H148A (enzyme)
chain: PSRSAEIMKHGYPGFTNVRTYEDFVLSYDYKTRTAHWVCEHLTPERLKHAEGVDRKLCEFKPDITFPQKFLSQNTDYKCSGFDRGALAAAGNHRKSQLAVDQTFYLSNMSPQVGRGFNRDKWNDLEMHCRRVAKKMINSYIITGPLYLPKLEGDGKKYIKYQVIGDNNVAVPTHFFKVALFEVTPGKFELESYILPNAVIEDTVEISKFHVPLDAVERSAGLEIFARLDPKSIVKENGAKKGG
With B1, in the data set “SEC”, the “stoichiometry N” value is 2.

B2: CPS-6 H148A/F122A (enzyme)
chain: PSRSAEIMKHGYPGFTNVRTYEDFVLSYDYKTRTAHWVCEHLTPERLKHAEGVDRKLCEAKPDITFPQKFLSQNTDYKCSGFDRGALAAAGNHRKSQLAVDQTFYLSNMSPQVGRGFNRDKWNDLEMHCRRVAKKMINSYIITGPLYLPKLEGDGKKYIKYQVIGDNNVAVPTHFFKVALFEVTPGKFELESYILPNAVIEDTVEISKFHVPLDAVERSAGLEIFARLDPKSIVKENGAKKGG
For B2, the “stoichiometry N” value in the data set “SEC” is 2.
